Key:
mouseBsep = target: T1, mouseBsep (Mus musculus, UniProt Q9QY30); assay: Vanadate sensitive ATPase assay, mouseBsep Sf9 membrane vesicles; format: biochemical; set-up: made in house; host or cells: baculovirus infected Sf9 (Spodoptera frugiperda) cells
T1 sequence (Q9QY30 1-1321): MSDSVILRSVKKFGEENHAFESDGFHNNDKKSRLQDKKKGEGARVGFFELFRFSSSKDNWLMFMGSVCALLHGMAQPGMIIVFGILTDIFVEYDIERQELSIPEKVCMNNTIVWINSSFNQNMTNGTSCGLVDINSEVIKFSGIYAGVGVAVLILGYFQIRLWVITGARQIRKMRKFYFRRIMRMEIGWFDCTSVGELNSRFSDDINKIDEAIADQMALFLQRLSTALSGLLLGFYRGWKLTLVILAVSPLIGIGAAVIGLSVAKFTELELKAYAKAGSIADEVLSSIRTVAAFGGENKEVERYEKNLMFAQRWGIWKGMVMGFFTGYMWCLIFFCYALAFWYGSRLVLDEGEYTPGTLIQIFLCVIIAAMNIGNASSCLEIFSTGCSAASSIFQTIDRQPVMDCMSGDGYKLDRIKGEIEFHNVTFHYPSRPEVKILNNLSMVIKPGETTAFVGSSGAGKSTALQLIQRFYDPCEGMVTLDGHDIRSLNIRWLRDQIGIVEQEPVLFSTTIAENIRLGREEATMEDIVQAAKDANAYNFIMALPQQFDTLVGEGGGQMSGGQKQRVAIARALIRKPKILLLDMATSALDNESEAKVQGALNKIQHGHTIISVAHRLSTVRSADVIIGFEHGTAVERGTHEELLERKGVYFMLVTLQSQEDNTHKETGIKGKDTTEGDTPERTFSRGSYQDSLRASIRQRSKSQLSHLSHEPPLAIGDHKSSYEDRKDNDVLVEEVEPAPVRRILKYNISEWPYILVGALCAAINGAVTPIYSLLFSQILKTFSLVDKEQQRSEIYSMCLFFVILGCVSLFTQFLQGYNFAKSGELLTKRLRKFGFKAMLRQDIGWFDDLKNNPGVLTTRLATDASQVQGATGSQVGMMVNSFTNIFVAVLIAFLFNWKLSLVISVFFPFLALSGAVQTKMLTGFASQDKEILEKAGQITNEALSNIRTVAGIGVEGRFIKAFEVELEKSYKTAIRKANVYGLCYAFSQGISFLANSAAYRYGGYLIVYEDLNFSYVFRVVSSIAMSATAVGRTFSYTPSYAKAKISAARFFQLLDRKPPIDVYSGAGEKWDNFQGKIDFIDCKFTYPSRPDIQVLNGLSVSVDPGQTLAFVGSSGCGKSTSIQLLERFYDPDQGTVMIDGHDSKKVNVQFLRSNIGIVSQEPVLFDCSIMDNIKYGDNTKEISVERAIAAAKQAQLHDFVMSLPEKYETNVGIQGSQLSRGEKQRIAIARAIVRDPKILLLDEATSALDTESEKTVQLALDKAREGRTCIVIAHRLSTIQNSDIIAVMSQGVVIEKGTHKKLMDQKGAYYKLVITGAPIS
Source text: The samples treated with cholesterol@RAMEB complex were compared with untreated vesicles.

[1] = substrate: C[C@H](CCC(=O)NCCS(=O)(=O)O)[C@H]1CC[C@H]2[C@@H]3[C@H](O)C[C@@H]4C[C@H](O)CC[C@]4(C)[C@H]3C[C@H](O)[C@]12C; assay: cells, lysate or membranes named

Q: Which “Vanadate sensitive ATPase activity in the presence of the substrate” value (mouseBsep; cholesterol loaded mouseBsep vesicles, basal 4.7) does the source give for `C[C@H](CCC(=O)NCCS(=O)(=O)O)[C@H]1CC[C@H]2[C@@H]3[C@H](O)C[C@@H]4C[C@H](O)CC[C@]4(C)[C@H]3CC[C@]12C` [taurochenodeoxycholate] here?
A: The value was 39 nmol Pi/mg prot/min.

Q: What about the “Vanadate sensitive ATPase activity in the presence of the substrate” value (mouseBsep; untreated mouseBsep vesicles, basal 37) of the same molecule?
A: Its value is 64 nmol Pi/mg prot/min.

B1: ratBsep (Rattus norvegicus) (protein)
chain: MSDSVILRSVKKFGEENHAFESDGSHNNDKKSRLQDKMKEGDIRVGFFELFRFSSSKDIWLMLMGGVCALLHGMAQPGILIIFGIMTDIFIKYDIERQELEIPGKACVNNTIVWINSSFHQNMTNGTVCGLVDIESEMIKFSGIYAGVGMTVLILGYFQIRLWVITGARQIRRMRKIYFRRIMRMEIGWFDCTSVGELNSRFADDIEKINDAIADQLAHFLQRMSTAMCGLLLGFYRGWKLTLVILAVSPLIGIGAAVIGLSIAKFTELELKAYAKAGSIADEVLSSIRTVAAFGGENKEVERYEKNLVFAQRWGIWKGMVMGFFTGYMWCLIFFCYALAFWYGSTLVLDEEEYTPGTLVQIFLCVILAAMNIGHASSCLEIFSTGCSAATNIFQTIDRQPVIDCMSGDGYKLDRIKGEIEFHNVTFHYPSRPDVKILDNLSMVIKPGETTALVGSSGAGKSTALQLIQRFYDPCEGMVTLDGHDIRSLNIRWLRDQIGIVEQEPVLFSTTIAENIRFGREDATMEDIVQAAKDANAYNFIMALPQQFDTLVGEGGGQMSGGQKQRVAIARALIRNPKILLLDMATSALDNESEARVQEALNKIQHGHTIISVAHRLSTVRAADVIIGFEHGVAVERGTHEELLERKGVYFMLVTLQSQGDNAHKETSIMGKDATEGGTLERTFSRGSYRDSLRASIRQRSKSQLSLLTHDPPLAVADHKSSYKDSKDNDVLVEEVEPAPVRRILKYNIPEWHYILVGSLSAAINGAVTPIYSLLFSQLLGTFSLLDKEQQRSEIHSMCLFFVILGCVSIFTQFLQGYTFAKSGELLTKRLRKFGFKAMLGQDIGWFDDLRNNPGVLTTRLATDASQVQGATGSQVGMMVNSFTNIIAALLIAFFFSWKLSLIITIFFPFLALSGAVQTKMLTGFASQDKQALEKAGQITSEALSNIRTVAGIGVEGRFIKAFEVELQTSYKTAVRKANIYGLCFAFSQGIAFLANSAAYRYGGYLIAYEGLGFSHVFRVVSSVALSATAVGRTFSYTPSYAKAKISAARFFQLLDRKPPINVYSEAGEKWDNFQGKIDFIDCKFTYPSRPDIQVLNGLSVSVNPGQTLAFVGSSGCGKSTSIQLLERFYDPDQGTVMIDGHDSKKVNIQFLRSNIGIVSQEPVLFDCSIMDNIKYGDNTKEISVERAIAAAKQAQLHDFVMSLPEKYETNVGIQGSQLSRGEKQRIAIARAIVRDPKILLLDEATSALDTESEKTVQTALDKAREGRTCIVIAHRLSTIQNSDIIAVVSQGVVIEKGTHEKLMAQKGAYYKLVITGAPIS
Q: Which Km ([1]; other: ratBsep-Sf9 CTRL) does the source give for B1 here?
A: The Km was 2.203 µM.

B2: mouseBsep (Mus musculus) (protein)
chain: MSDSVILRSVKKFGEENHAFESDGFHNNDKKSRLQDKKKGEGARVGFFELFRFSSSKDNWLMFMGSVCALLHGMAQPGMIIVFGILTDIFVEYDIERQELSIPEKVCMNNTIVWINSSFNQNMTNGTSCGLVDINSEVIKFSGIYAGVGVAVLILGYFQIRLWVITGARQIRKMRKFYFRRIMRMEIGWFDCTSVGELNSRFSDDINKIDEAIADQMALFLQRLSTALSGLLLGFYRGWKLTLVILAVSPLIGIGAAVIGLSVAKFTELELKAYAKAGSIADEVLSSIRTVAAFGGENKEVERYEKNLMFAQRWGIWKGMVMGFFTGYMWCLIFFCYALAFWYGSRLVLDEGEYTPGTLIQIFLCVIIAAMNIGNASSCLEIFSTGCSAASSIFQTIDRQPVMDCMSGDGYKLDRIKGEIEFHNVTFHYPSRPEVKILNNLSMVIKPGETTAFVGSSGAGKSTALQLIQRFYDPCEGMVTLDGHDIRSLNIRWLRDQIGIVEQEPVLFSTTIAENIRLGREEATMEDIVQAAKDANAYNFIMALPQQFDTLVGEGGGQMSGGQKQRVAIARALIRKPKILLLDMATSALDNESEAKVQGALNKIQHGHTIISVAHRLSTVRSADVIIGFEHGTAVERGTHEELLERKGVYFMLVTLQSQEDNTHKETGIKGKDTTEGDTPERTFSRGSYQDSLRASIRQRSKSQLSHLSHEPPLAIGDHKSSYEDRKDNDVLVEEVEPAPVRRILKYNISEWPYILVGALCAAINGAVTPIYSLLFSQILKTFSLVDKEQQRSEIYSMCLFFVILGCVSLFTQFLQGYNFAKSGELLTKRLRKFGFKAMLRQDIGWFDDLKNNPGVLTTRLATDASQVQGATGSQVGMMVNSFTNIFVAVLIAFLFNWKLSLVISVFFPFLALSGAVQTKMLTGFASQDKEILEKAGQITNEALSNIRTVAGIGVEGRFIKAFEVELEKSYKTAIRKANVYGLCYAFSQGISFLANSAAYRYGGYLIVYEDLNFSYVFRVVSSIAMSATAVGRTFSYTPSYAKAKISAARFFQLLDRKPPIDVYSGAGEKWDNFQGKIDFIDCKFTYPSRPDIQVLNGLSVSVDPGQTLAFVGSSGCGKSTSIQLLERFYDPDQGTVMIDGHDSKKVNVQFLRSNIGIVSQEPVLFDCSIMDNIKYGDNTKEISVERAIAAAKQAQLHDFVMSLPEKYETNVGIQGSQLSRGEKQRIAIARAIVRDPKILLLDEATSALDTESEKTVQLALDKAREGRTCIVIAHRLSTIQNSDIIAVMSQGVVIEKGTHKKLMDQKGAYYKLVITGAPIS
Q: B2 was tested. Which Km ([1]; other: mouseBsep-Sf9 CTRL) did it give?
A: Its Km is 6.798 µM.

B3: humanBSEP (Homo sapiens) (protein)
chain: MSDSVILRSIKKFGEENDGFESDKSYNNDKKSRLQDEKKGDGVRVGFFQLFRFSSSTDIWLMFVGSLCAFLHGIAQPGVLLIFGTMTDVFIDYDVELQELQIPGKACVNNTIVWTNSSLNQNMTNGTRCGLLNIESEMIKFASYYAGIAVAVLITGYIQICFWVIAAARQIQKMRKFYFRRIMRMEIGWFDCNSVGELNTRFSDDINKINDAIADQMALFIQRMTSTICGFLLGFFRGWKLTLVIISVSPLIGIGAATIGLSVSKFTDYELKAYAKAGVVADEVISSMRTVAAFGGEKREVERYEKNLVFAQRWGIRKGIVMGFFTGFVWCLIFLCYALAFWYGSTLVLDEGEYTPGTLVQIFLSVIVGALNLGNASPCLEAFATGRAAATSIFETIDRKPIIDCMSEDGYKLDRIKGEIEFHNVTFHYPSRPEVKILNDLNMVIKPGEMTALVGPSGAGKSTALQLIQRFYDPCEGMVTVDGHDIRSLNIQWLRDQIGIVEQEPVLFSTTIAENIRYGREDATMEDIVQAAKEANAYNFIMDLPQQFDTLVGEGGGQMSGGQKQRVAIARALIRNPKILLLDMATSALDNESEAMVQEVLSKIQHGHTIISVAHRLSTVRAADTIIGFEHGTAVERGTHEELLERKGVYFTLVTLQSQGNQALNEEDIKDATEDDMLARTFSRGSYQDSLRASIRQRSKSQLSYLVHEPPLAVVDHKSTYEEDRKDKDIPVQEEVEPAPVRRILKFSAPEWPYMLVGSVGAAVNGTVTPLYAFLFSQILGTFSIPDKEEQRSQINGVCLLFVAMGCVSLFTQFLQGYAFAKSGELLTKRLRKFGFRAMLGQDIAWFDDLRNSPGALTTRLATDASQVQGAAGSQIGMIVNSFTNVTVAMIIAFSFSWKLSLVILCFFPFLALSGATQTRMLTGFASRDKQALEMVGQITNEALSNIRTVAGIGKERRFIEALETELEKPFKTAIQKANIYGFCFAFAQCIMFIANSASYRYGGYLISNEGLHFSYVFRVISAVVLSATALGRAFSYTPSYAKAKISAARFFQLLDRQPPISVYNTAGEKWDNFQGKIDFVDCKFTYPSRPDSQVLNGLSVSISPGQTLAFVGSSGCGKSTSIQLLERFYDPDQGKVMIDGHDSKKVNVQFLRSNIGIVSQEPVLFACSIMDNIKYGDNTKEIPMERVIAAAKQAQLHDFVMSLPEKYETNVGSQGSQLSRGEKQRIAIARAIVRDPKILLLDEATSALDTESEKTVQVALDKAREGRTCIVIAHRLSTIQNADIIAVMAQGVVIEKGTHEELMAQKGAYYKLVTTGSPIS
Q: For B3, which Km ([1]; other: humanBSEP-Sf9 CTRL) is on record?
A: The Km was 15.03 µM.

From patent US8129197B2, “Cholesterol loaded insect cell membranes as test proteins” (SOLVO Biotechnológial ZRT., priority 2006, dated 2012)
